Data reported in the nanobody polyreactivity screen of Harvey et al. (2022).

Assay: yeast display, Sf9 membrane polyspecificity reagent, FACS + sequencing; frameworks hold sequencing errors
Summary of the method: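 Using colony PCR, genes from sorted yeast display clones were amplified, then sequenced on MiSeq at 2 × 250 and filtered by CDR length. The clones had been stained with 10% biotinylated, detergent-solubilized Sf9 membrane reagent for 1 hour at 4 °C and sorted by FACS into low and high (top ~1%) gates on anti-HA and streptavidin fluorescence. Polyreactivity labels come from the gate of origin.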

Sequence	polyreactivity (PSR sort gate)
QVQLVESGGGIVQAGGSLRLSCAASGRTIPPYGMGWYRQAPGKERELVAAISKSSGSTNYADSVKGRVTISRDNAKNTVYLQMNSLKPEDTAVYYCTKEWSIGPTGIRAYVRVWYYYWGQGTQVTVSS	low polyreactivity
QEHLVESGGGLVQAGGTLRLSCAASGGTFYVNDMGWYRQPPGKESELVATITYSGTSTYYADSVTGSFTISRDNAKNTVYLQMNSLKPEDTAVYYGATDVLLYLEPVNLDYCGQGTQVTVSS	low polyreactivity
QVHLVESVGGLVQAGGSLRLSCAASGRIIYTYAMGWYIQAPGKERELVAAISWSGGSTYYADSVKGRFTISRDNAKNTVYLQMNSLKPEDTAVYYCNAAYYGYENLSKRGYWGQGTQVTVSS	high polyreactivity
QVQLVESGGGLVQAGGSLRLSCAASGFTFRTYAMGWYRQAPGKEREFVAAITTSGGSTYYADSVKGRFTISRDNAKNTVYLQMNSLKPEDTAVYYCAAKKATVVYRMEYWGQGTQVTVSS	high polyreactivity
QVQIVESGGGLVQAGGSLRLSCAASGSIFRYYALGWYRQAPGKERELVAAISSGTITNYADSVKGRFTISRDNAKNTVYLQMNSLKPEDTAVYYCAADTWYLGYPDYWLDYWGQGTQVTVSS	low polyreactivity
QVHLVESGGGLVQAGGSLRLSCAASGFTFGHYAMGWYRQAPGKERELVAAITYRGGSTYYADSVKGRFTISRDNAKNTVYLQMNSLKPEDTAVYYCNADRRYKVYFAQNGHYDYWGQGTQVTVSS	high polyreactivity
QVQLVESGGGLVQAGGSLRLSCAASGSIFTYYAMGWYRQAPGKERELVAAISRRGTRTYYADSVKGRFTISRDNAKNTVYLQMNSLKPEDTAVYYCAAEYTETGTAKMEYWGQGTQVTVSS	high polyreactivity
QVQLVESGGGLVQAGGSLRLSCAASGSIFRVYAMGWYRQAPGKERELVAAITYSSGSTYYADSVKGRFTISRDNAKNTVYLQMNSLKPEDTAVYYCAAYWSYYLREFDYWGQGTQVTVSS	high polyreactivity
QVQLVESGGGLVQAGGSLRLSCAASGRILDINTMRGYRHPPGKERELVAAITWSGVSTYYADSVKGRFTISRDNAKNTVYLQMNSLKPEDTAVYYCAARPYYTWRYLPTNSGDYWGQGTQETVSS	low polyreactivity
QVQLVESGGGLVQAGGSLRLSCAASGIIFRRYAMGWYRQAPGKERELVATITRSGSTNYADSVKGRFTISRDNAKNTVYLQMNSLKPEDTAVYYCNADYIRGGWYSEDYWGQGTQVTVSS	high polyreactivity
QVQLVESGGGLVQAGGSLRLSCAASGSTFYGNAMGWYRQAPGKERELVAAITGDGGSTYYADSVKGRFTISRDNAKNTVYLQMNSLKPEDTAVYYCAVDVIVLGQWPGQLDEFDYWGQGTQVTVSS	low polyreactivity
QVQLVESGGGLVQAGGSLRLSCAASGSTSAWYAMGWYRQAPGKERQLVATISSRGGSTYYADSVKGRFTISRDNAKNTVYLQMNSLKPEDTAVYYCAARIGATYWVDWTHRAYDYWGQGTQVTVSS	high polyreactivity
QVQLVESGGGLVQAGGSLRLSCAASGITFRAYALGWYRQAPGKEREFVAAISWRGGSTYYADSVKGRFTISRDNAKNTVYLQMNSLKPEDTAVYYCAVGSYDHDYWYEYWGQGTQVTVSS	high polyreactivity
QVHLVESGGGLVQAGGSLRLSCDASGLTLWTYAMGWSRQAAGKEMELVARIRSGGSTYYADSVKGRFTFSRDNAKNTVYLQMNSLKPEDTAVYSCNAKRYGRWAAAGRVGYDYWGQGTQVTVSS	high polyreactivity
QVQLVESGGGLVQAGGSLRLSCAASGLIFAVYTMGWYRQAPGKERELVAAITRRSTRTYYADSVKGRFTISRDNAKNTVYLQMNSLKPEDTAVYYCAADRGSSGAAFEYWGQGTQVTVSS	low polyreactivity
QVHLVESGGGLVQAGGSHRLSCAASGSTLRWNAMGWYRQAPGKERELVAAITYSGGSTYYADSVKGRFTISRDNAKNTVYFQMNSLKPEDTAVYYCAADSYRYRPGYGPVLYDYWGQGTQVTVSS	high polyreactivity
QVQLVESGGGLVQAGGSLRLSCAASGSTFPPNAMGWYRQAPGKERELVAAISASGGRTYYADSVKGRFTISRDNAKNTVYLQMNSLKPEDTAVYYCNARGGRYGRGSSDQLDYYWGQGTQVTVSS	high polyreactivity
QVQLEESGVGLVQAGGSLRLSCAASGRTFLRNAMGWYRQAPGKEMELVAAISWRGGSTYYADSVKGRFTISRDNAKNTVYLEMNSLKPEDTAVYYCNTFPSQYLWYDYWGQGTQVNVSS	high polyreactivity
QVQLVESGGGLVQAGGSLRLSCAASGRTFRQYAMGWYRQAPGKERELVADISSGGSTYYADSVKGRFTISRDNAKNTVYLKLNRLKPEDTAVYYCNKVSSGRYGSRSFDYWGQGTQVTVSS	low polyreactivity
QVQLVESGGGLVQAGGSLRLSCAASGSIFDFYAMGWYRQAPGKERELVAAITWSGDTTYYADSVKGRFTISRDNAKNTVYLQMNCLKPEDTAVYYCAAEGWYWWYGRDYYWGQGTQVTVSS	high polyreactivity
QVQLVESGGGLVQAGGSLRLSCAASGFTFIRNAMGWYRQAPGKERELVAAISRSGGSTYYADSVKGRFTISRDNAKKTVYLQMNSQKPEDTAVYYCAVTLYLKWQGGAYDYWGQGTQVTVSS	low polyreactivity
QVQLVESGGGLVQAGGSLRLSCAASGRTFRSYAMGWYRQAPGKERELVAAITWGGGRTYYADSVKGRFTISRDNAKNTVYLQMNSLKPEDTAVYYCATRVKFSTSYWLYYWGQGTQVTVSS	high polyreactivity

Sequence	polyreactivity (PSR sort gate)
QVQLVESGGGLVQAGGSLRLSCAASGSTFQGYAMGWYRPAPGTERELVAAINYSGGSTYYADSVKGRFTISRDNAKNTVYVLMNSLKPEDTAVYYCAVKLRSRAGTSYGYWGQGTQVTVSS	high polyreactivity
QVQVVESGGGLVQAGGSLRLSCAASGGIFYGYAMGWYRQAPGKERELVAAITSNGGTTYYADSVKGRFTISRDNAKNTVYLQMNSLKPEDTAVYYCDAYFKDSGSYYYWGQGTQVNVSS	low polyreactivity
QGQLVESCGCLVQAGGSLRLSCAASGSTFVVYDMGWYRQAPGKERELVAAITWSGGSTYYADSVKGRFTISRDNAKNTVYLQMNSLKPEDTAVYYCNKVTWHQGHDYWGQGTQVTVSS	low polyreactivity
QLQLVESGGGLVQAGGSLRLSCAASGITFPFYDMGWYRQAPGKEREFVAAISWSAGNTYYADSVKGRFTISRDNAKNTVYLQMNSLKPEDTAVYYCAAYGPSYEEDYWGQGTQVTVSS	high polyreactivity
QVQLVESGGGLVQAGGSLRLTCAASGSTFPSYAMGWYRQAPGKERELVAAINSGGGTNYADSVKGRFTISRDNAKNTVYLHMNSLKPEDTAVYYCAKSRYDYTKTEGGYWGQGSQVTVSS	low polyreactivity
QVQLVESGGGLVQAGGSLRLSCAASGSIFDINVMGWYRQAPGKERELVAAITSGGRTNYADSVKGRFTISRDNAKNTVYLQMNSLKPEDTAVYYCAAVRHRQTYPKYNYWGQGTQVTVSS	high polyreactivity
QEQQQESGGGLVQAGGSLRLSCSSSGSIILFYTMGWYRHAPVKERECVAGITLGTTTYNADSVKGRFTISRDNVKISVYLQMNSLKPEDTAVDYCAVAVGHYTEFWYWGQGTQVTMSS	high polyreactivity
QVQLVESGGGLVQAGGSLRLSCAASGYYAMGWYRQAPGKERELVAAITWSGGTTYYADSVKGRFTISRDNAKNTVYLQMNSLKPEDTAVYYCNADFVRYTRHKKYYYWGQGTQVTVSS	low polyreactivity
QVQLVESGGGLVQAGGSLRLSCAASGRILYDYDMGWYRQAPGKERELVATISRGGGTNYADSVKGRFTISRDNAKNNVYLQMNSLKPEDTAVYYCAAYYSSDGDYWGQGTQVTVSS	low polyreactivity
QVQLVESGGGLVQAGGSLRLSCAASGFTFSWYAMGRYRQAPGKERELVAAISSAGNTNYADSVKGRFTISRDNAKNTVYLQMNSLKPEDTAVYYCAKRDYWGQGTQVTVSS	high polyreactivity
QVQLVESGGGLVQGGGSLRLSCAASGRIFGHYVMGSYRQAPGKERELVAAISYSGGSTYYADSVKGRFTISRDNAKNTVYLQMNSLKPEDTAVFYCAARVTQDSPYGAYYYWGQGTQVTVSS	high polyreactivity
QVQLLESGGGLVQAGGSLRLSCAASGFIFPGYAMGWYRQAPGKEREFVAAITSRGGSTYYADSVKGRFTISRDNAKNTVYLQMNSLKPEDTAVYYCAARNFLSRRGTYDYWGQGTQVTVSS	high polyreactivity
QVQLVESGGGLVQAGGSLRLSCAASGSTFRYYAMGWYRPAPGKERELVAVISTSGNTYYADSVKGRFTISRDNAKNTVYLQMNSLKPEDTAVYYCAARGVGGQISQEYDYWGQGTQVTVSS	low polyreactivity
QVQLVESGGALVQAGGRLRLSCAASGTFERKVMGWYIHAPGKERELVAAISRSGSSTYYADSLKGRFTISRDNAKNTVYLQMNSLKPEDTAVYYCAARGTKQHFNYWGQGTQVTVSS	high polyreactivity
QVQLEESGGGLVQAGGSLRLSFAASGRIFRYYAMGWYRHAPGKERELVPRMSWSGGSTHYADSVKGRFTISRDNAKNTVYLQMNSLTPEDTAVYYCAADGNGYPYRAGRTYDYWGQGTQVTVSS	low polyreactivity
QVQLVESGGGLVQAGGSLRLSCAASGRTFPRNAMGWYRQAPGKERELVAAISYGGGRTYYADSVKGRFTISRDNAKNTVYLQMNSLKPEDTAVYYCATVRRTDYPLGMDYWGQGTQVTVSS	high polyreactivity
QFQLVESGGGLVQAGASLRLSCAASGNIFPAYAMGWYRQAPGKERELVATISRRGGGTYYADSVKGRFTISRDNAKNTVYLQMNSLKQEDTAVYYCNVAGWTSAYDYWGQGTQVTVSS	low polyreactivity
QVQLVESGGGLVQAGGSLRLSCAASGITFTQYAMGWYRQAPGKELELVAAITSSGGSTYYADSVKERFTISRDNAKNTVYLQMNSLKPEDTAVYYFIAVRRRQSDYWGQGTQVTVSS	high polyreactivity
QVQLVESGGGLVQAGGSLRLSCAASGITFYGYAMGWYRQAPGKERELVAAITRGGSTNYADSVKGRFTISRDNAKNTVYLQMNSLKPEDTAVYYCAAEYSVYWYYRYEYWGQGTQVTVSS	high polyreactivity
QVQLVESGGGLVQAGGSLRLSCAASGIIFDYYAMGWYRQAPGKERELVATITSGGSTNYADSVKGRFTISRDNAKNTVYLQMNSLKPEDTAVYYCAKEYFATWLIPKYDYWGQGTQVTVSS	low polyreactivity
QVQLVESGGGLVQAGGSLRLSCAASGSTFFVYDMGWYRQAPGKERELVAAISISDGGTYYADSVKGRFTISRDNAKNTVYLQMNSQKPVDTAVYYCAADYSERYFRGYDYWGQGTQVTVSS	low polyreactivity
